The chains are these.
B1: KD030 (antibody, V domains shown)
VH: QVQLQESGGGLVQPGGSLRLSCAASGFPFSSADMSWVRQAPGKGLEWVSYINADGSKTYYADTVKGRFTISRDNSKNTLYLQMNSLRAEDTAVYRCARAKLTDTHYVEDYWGQGTMVTVSS
notes: KD002 humanized variant
B2: KD029 (antibody, V domains shown)
VH: QVQLQESGGGLVQPGGSLRLSCAASGFPFSSADMSWVRQAPGKGPEWVSYINADGSKTYYPDTVKGRFTISRDNSKNTLYLQMNNLRAEDTALYRCARAKLTDTHYVEDYWGQGTMVTVSS
notes: KD002 humanized variant
B3: KD032 (antibody, V domains shown)
VH: QVQLLESGGGLVQPGGSLRLSCAASGFPFSSADMSWVRQAPGKGLEWVSYINADGSKTYYADTVKGRFTISRDNSKNTLYLQMNSLRAEDTAVYRCARAKLTDTHYVEDYWGQGTMVTVSS
notes: KD002 humanized variant
B4: KD033 (antibody, V domains shown)
VH: QVQLQESGGGLVQPGGSLRLSCAASGFPFSSADMSWVRQAPGKGLEWVSVINADGSKTYYADTVKGRFTISRDNSKNTLYLQMNSLRAEDTAVYRCARAKLTDTHYVEDYWGQGTMVTVSS
notes: KD002 humanized variant
B5: KD026 (antibody, V domains shown)
VH: QVQLQESGGGMVQVGGSLRLSCAASGFPFSSADMSWVRQAPGKGPEWVSYINADGSKTYYPDTVKGRFTISRDNAKNTLYLQMNSLKPEDTAVYRCARAKLTDTHYVEDYWGQGTQVTVSS
notes: KD002 humanized variant
B6: KD022 (antibody, V domains shown)
VH: EVQLVESGGGLVQPGGSLRLSCAASGFPFSSADMSWVRQAPGKGPEWVSYINADGSKTYYADTVKGRFTISRDNAKNTLYLQMNSLRAEDTAVYYCARAKLTDTHYVEDYWGQGTQVTVSS
notes: KD002 humanized variant
B7: KD028 (antibody, V domains shown)
VH: EVQLLESGGGLVQPGGSLRLSCAASGFPFSSADMSWVRQAPGKGLEWVSVINADGSKTYYADTVKGRFTISRDNSKNTLYLQMNSLRAEDTAVYYCARAKLTDTHYVEDYWGQGTMVTVSS
notes: KD002 humanized variant
B8: KD021 (antibody, V domains shown)
VH: EVQLVESGGGLVQPGGSLRLSCAASGFPFSSADMSWVRQAPGKGLEWVSYINADGSKTSYADTVKGRFTISRDNAKNTLYLQMNSLRAEDTAVYYCARAKLTDTHYVEDYWGQGTLVTVSS
notes: KD002 humanized variant
B9: KD034 (antibody, V domains shown)
VH: QVQLQESGGGLVQPGGSLRLSCAASGFPFSSADMSWVRQAPGKGLEWVSYINADGSKTYYADTVKGRFTISRDNSKNTLYLQMNSLRAEDTAVYYCARAKLTDTHYVEDYWGQGTMVTVSS
notes: KD002 humanized variant
B10: KD031 (antibody, V domains shown)
VH: EVQLQESGGGLVQPGGSLRLSCAASGFPFSSADMSWVRQAPGKGLEWVSYINADGSKTYYADTVKGRFTISRDNSKNTLYLQMNSLRAEDTAVYRCARAKLTDTHYVEDYWGQGTMVTVSS
notes: KD002 humanized variant
B11: KD027 (antibody, V domains shown)
VH: QVQLQESGGGMVQVGGSLRLSCAASGFPFSSADMSWVRQAPGKGPEWVSYINADGSKTYYPDSVKGRFTISRDNAKNTLYLQMNSLKPEDTAVYRCARAKLTDTHYVEDYWGQGTQVTVSS
notes: KD002 humanized variant
B12: KD023 (antibody, V domains shown)
VH: QVQLVESGGGLVQPGGSLRLSCAASGFPFSSADMSWVRQAPGKGPEWVSYINADGSKTYYPDTVKGRFTISRDNAKNTLYLQMNSLRAEDTAVYYCARAKLTDTHYVEDYWGQGTQVTVSS
notes: KD002 humanized variant
B13: KD025 (antibody, V domains shown)
VH: QVQLVESGGGLVQVGGSLRLSCAASGFPFSSADMSWVRQAPGKGPEWVSYINADGSKTYYPDTVKGRFTISRDNAKNTLYLQMNSLKPEDTAVYRCARAKLTDTHYVEDYWGQGTQVTVSS
notes: KD002 humanized variant
B14: KD024 (antibody, V domains shown)
VH: QVQLVESGGGLVQPGGSLRLSCAASGFPFSSADMSWVRQAPGKGPEWVSYINADGSKTYYPDTVKGRFTISRDNAKNTLYLQMNSLRAEDTAVYRCARAKLTDTHYVEDYWGQGTQVTVSS
notes: KD002 humanized variant
B15: KD047 (antibody, V domains shown)
VH: QVQLLESGGGLVQPGGSLRLSCAASGFTFSGSDMSWVRQAPGKGPEWVSYITSGGTTYYADTVKGRFTISRDNSKNTLYLQMNSLRAEDTAVYRCAKSRLTDSHYVEDAWGQGTLVTVSS
notes: KD005 humanized variant
B16: KD064 (antibody, V domains shown)
VH: QVQLQESGGGLIQPGGSLRLSCAASGFTFSGSDMSWYRQAPGKGREWVSYITSGGTTYYADTVKGRFTISRDNSKNTLYLQMNSLRAEDTAVYRCAKSRLTDSHYVEDAWGQGTLVTVSS
notes: KD005 humanized variant with framework 2 changes
B17: KD063 (antibody, V domains shown)
VH: QVQLQESGGGLIEPGGSLRLSCAASGFTFSGSDMSWVRQAPGKGLEWVSYITSGGTTYYADTVKGRFTISRDNSKNTLYLQMNSLRAEDTAVYRCAKSRLTDSHYVEDAWGQGTQVTVSS
notes: KD005 humanized variant
B18: KD051 (antibody, V domains shown)
VH: QVQLQESGGGLVQPGGSLRLSCAASGFTFSGSDMSWVRQAPGKGPEWVSYITSGGTTYYPDTVKGRFTISRDNAKNTLYLQMNSLKPDDTALYRCAKSRLTDSHYVEDAWGQGTQVTVSS
notes: KD005 humanized variant
B19: KD049 (antibody, V domains shown)
VH: QVQLQESGGGLVQPGGSLRLSCAASGFTFSGSDMSWVRQAPGKGPEWVSYITSGGTTYYPDTVKGRFTISRDNSKNTLYLQMNSLRAEDTAVYRCAKSRLTDSHYVEDAWGQGTQVTVSS
notes: KD005 humanized variant
B20: KD061 (antibody, V domains shown)
VH: QVQLQESGGGLIQPGGSLRLSCAASGFTFSGSDMSWVRQAPGKGLEWVSYITSGGTTYYADTVKGRFTISRDNSKNTLYLQMNSLRADDTAVYRCAKSRLTDSHYVEDAWGQGTLVTVSS
notes: KD005 humanized variant
B21: KD062 (antibody, V domains shown)
VH: QVQLQESGGGLIQPGGSLRLSCAASGFTFSGSDMSWVRQAPGKGLEWVSYITSGGTTYYADTVKGRFTISRDNSKNTLYLQMNSLRAEDTALYRCAKSRLTDSHYVEDAWGQGTLVTVSS
notes: KD005 humanized variant
B22: KD058 (antibody, V domains shown)
VH: QVQLQESGGGLIQPGGSLRLSCAASGFTFSGSDMSWVRQAPGKGLEWVSYITSGGTTYYADTVKGRFTISRDNSKNTLYLQMNSLRAEDTAVYYCAKSRLTDSHYVEDAWGQGTLVTVSS
notes: KD005 humanized variant
B23: KD059 (antibody, V domains shown)
VH: QVQLQESGGGLIQPGGSLRLSCAASGFTFSGSDMSWVRQAPGKGPEWVSYITSGGTTYYADTVKGRFTISRDNSKNTLYLQMNSLRAEDTAVYRCAKSRLTDSHYVEDAWGQGTLVTVSS
notes: KD005 humanized variant
B24: KD060 (antibody, V domains shown)
VH: QVQLQESGGGLIQPGGSLRLSCAASGFTFSGSDMSWVRQAPGKGLEWVSYITSGGTTYYPDTVKGRFTISRDNSKNTLYLQMNSLRAEDTAVYRCAKSRLTDSHYVEDAWGQGTLVTVSS
notes: KD005 humanized variant
B25: KD053 (antibody, V domains shown)
VH: QVQLQESGGGLIQPGGSLRLSCAASGFTFSGSDMSWVRQAPGKGPEWVSYITSGGTTYYPDTVKGRFTISRDNSKNTLYLQMNSLRADDTALYRCAKSRLTDSHYVEDAWGQGTLVTVSS
notes: KD005 humanized variant
B26: KD048 (antibody, V domains shown)
VH: QVQLQESGGGLVQPGGSLRLSCAASGFTFSGSDMSWVRQAPGKGPEWVSYITSGGTTYYPDTVKGRFTISRDNSKNTLYLQMNSLRAEDTAVYYCAKSRLTDSHYVEDAWGQGTQVTVSS
notes: KD005 humanized variant

One test concerns the target T1, recombinant human TROP2 extracellular domain (aa 1-274) comprising His tag (human, UniProt P09758 27-274).
T1 construct: Used here for all assays on recombinant human TROP2 (ELISA, immunoblot, SPR, crystal), although only some of them name the catalogue number; also called human recombinant TROP2; recombinant human TROP2 protein; not shown: His tag
T1 sequence: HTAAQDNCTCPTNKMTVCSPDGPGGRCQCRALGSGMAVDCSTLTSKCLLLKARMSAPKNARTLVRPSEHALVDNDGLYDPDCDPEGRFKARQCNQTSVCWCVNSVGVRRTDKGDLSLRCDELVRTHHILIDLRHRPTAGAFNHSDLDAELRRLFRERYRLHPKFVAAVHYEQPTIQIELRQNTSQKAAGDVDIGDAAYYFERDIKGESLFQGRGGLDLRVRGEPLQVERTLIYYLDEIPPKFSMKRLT
Put plainly: ELISA, coated rh TROP2. Here is the method:
(§1) Human TROP2 recombinant proteins were coated on 96-well ELISA plates at the concentration of 1 μg/mL. Plates were covered with adhesive plate cover and stored at 4° C. overnight. The next day, plates were washed 3× with washing buffer (PBS with 0.1% Tween™ 20). Plates were blocked with 2% fat-free BSA in washing buffer for 1 hour at 37° C. During the incubation time, the TROP2 reference antibodies, as well as the humanized variants, were diluted in the blocking buffer to the indicated concentrations. […] After blocking, the blocking buffer was removed from the wells and 100 μL of anti-TROP2 sdAbs dilutions were transferred to the corresponding wells. Plates were covered with adhesive plates cover and incubated at 37° C. for 1 hour. During the primary antibody incubation, the secondary antibody (goat anti-human IgG, HRP conjugated) was diluted 1 in 5000 with the blocking buffer. Plates were washed 3× with blocking buffer, followed by secondary antibody incubation for another 1 hour at 37° C. After the secondary antibody incubation, plates were washed 3× with washing buffer and added with 100 μL of ELISA chemiluminescent substrate (Thermofisher). The luminescence signal was detected by SpectraMax i3x at […].
Regarding B1, the EC50 amounted to 0.12 nM.
B2: the EC50 came out at 0.16 nM.
Still for that read-out and setting: then B3, with 0.15 nM; and B4, with 0.13 nM.
As to B5, the EC50 turned out to be 0.1 nM.
For B6, the EC50 is 0.07 nM.
As for B7, the EC50 amounted to 0.14 nM.
Take B8: the EC50 is 4.3 nM.
On to B9, for which the EC50 was 0.13 nM.
On to B10, for which the EC50 was found to be 0.11 nM.
Same read-out and setting: then B11, with 0.09 nM; and B12, with 0.08 nM; and B13, with 0.11 nM.
On to B14, for which the EC50 was 0.09 nM.

For a further test, the target named is T1, recombinant human TROP2 extracellular …. Briefly: ELISA, coated rh TROP2. The source holds these as a separate data set. The method, then: as §1
(In general: ELISA stands for enzyme-linked immunosorbent assay.)
Turning to B15, the EC50 turned out to be 0.14 nM and the “EC50% to KD005” value is 1.75 ratio to KD005.
The matching figures for B16: 0.14 nM and 1.75 ratio to KD005.
As to B17, the EC50 is 0.12 nM and the “EC50% to KD005” value was 1.5 ratio to KD005.
For B18, the EC50 amounted to 0.12 nM and the “EC50% to KD005” value is 1.5 ratio to KD005.
The matching figures for B19: 0.14 nM and 1.75 ratio to KD005.
B20: the EC50 is 0.12 nM and the “EC50% to KD005” value is 1.5 ratio to KD005.
Regarding B21, the EC50 was 0.14 nM and the “EC50% to KD005” value is 1.75 ratio to KD005.
B22: the EC50 turned out to be 0.1 nM and the “EC50% to KD005” value was 1.25 ratio to KD005.
For B23, the EC50 came out at 0.1 nM and the “EC50% to KD005” value was 1.25 ratio to KD005.
The matching figures for B24: 0.11 nM and 1.38 ratio to KD005.
With B25, the EC50 came out at 0.1 nM and the “EC50% to KD005” value was 1.25 ratio to KD005.
As to B26, the EC50 was determined as 0.11 nM and the “EC50% to KD005” value is 1.38 ratio to KD005.

Broadly, the EC50 is the midpoint of the concentration-response curve.
